Measured values from patent publication US20120058906A1 (published 2012).

Key:
[1] = target: T1, rHuman Erythropoietin R/Fc Chimera, CF (R&D Systems Cat#963-ER) (human, UniProt P19235 25-250); test: ECL (MSD multi-spot), antigen spotted on plate; Fab 352.5 nM; blank spot 494
T1 construct: Bought reagent; also called EPO R/Fc; Epo R; Fc part of the bought chimera not given
T1 sequence: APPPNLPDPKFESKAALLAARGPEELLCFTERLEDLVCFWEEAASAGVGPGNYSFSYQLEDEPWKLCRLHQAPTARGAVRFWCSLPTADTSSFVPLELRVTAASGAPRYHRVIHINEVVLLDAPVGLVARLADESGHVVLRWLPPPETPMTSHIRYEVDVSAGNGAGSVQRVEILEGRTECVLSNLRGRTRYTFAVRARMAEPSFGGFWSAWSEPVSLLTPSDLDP

[2] = target: T2, rHuman IGF-1 sR (IGF-1 sR), CF (R&D Systems Cat#391-GR) (human, UniProt P08069 31-932); test: as above
T2 construct: Bought soluble receptor; also called insulin-like growth factor-1 soluble receptor; IGF-R1

[3] = target: T3, rHuman P-Cadherin/Fc Chimera, CF (R&D Systems Cat#861-PC) (human, UniProt P22223 108-654); test: as above
T3 construct: Bought reagent; also called CDH3; Fc part of the bought chimera not given

[4] = target: T4, rHuman EGF R/Fc Chimera, CF (R&D Systems Cat#344-ER) (human, UniProt P00533 25-645); test: as above
T4 construct: Bought reagent; also called epidermal growth factor receptor; Fc part of the bought chimera not given

[5] = target: T5, rHuman Notch-1/Fc Chimera, CF (R&D Systems Cat#3647-TK) (human, UniProt P46531 19-526); test: as above
T5 construct: Bought reagent; Fc part of the bought chimera not given

[6] = target: T6, rHuman HGF R/c-MET/Fc Chimera, CF (R&D Systems Cat#358-MT/CF) (human, UniProt P08581 25-932); test: as above
T6 construct: Bought reagent; also called HGF R/Fc; hepatocyte growth factor receptor; Fc part of the bought chimera not given

[7] = target: T7, Recombinant Human DLL4 (R&D Systems Cat#1506-D4/CF) (human, UniProt Q9NR61 27-524); test: as above
T7 construct: Bought reagent; also called delta-like protein 4

[8] = target: T8, rHuman CD44/Fc Chimera, CF (R&D Systems Cat#3660-CD) (human, UniProt P16070 21-220); test: ECL (MSD multi-spot), antigen on plate, Fab 0.4 nM
T8 construct: Bought Fc chimera; not shown: Fc of the bought chimera

[9] = target: T9, rHuman Notch-1/Fc Chimera, CF (R&D Systems Cat#3647-TK) (human, UniProt P46531 19-526); test: ECL (MSD multi-spot), antigen on plate, Fab 0.4 nM
T9 construct: Bought Fc chimera; not shown: Fc of the bought chimera

[10] = target: T10, rHuman IGF-1 sR (insulin-like growth factor-1 soluble receptor), CF (R&D Systems Cat#391-GR) (human, UniProt P08069 31-932); test: ECL (MSD multi-spot), antigen on plate, Fab 0.4 nM
T10 construct: Bought soluble receptor; also called IGF-R1

[11] = target: T11, rHuman Erythropoietin R/Fc Chimera, CF (R&D Systems Cat#963-ER) (human, UniProt P19235 25-250); test: ECL (MSD multi-spot), antigen on plate, Fab 0.4 nM
T11 construct: Bought Fc chimera; also called EPO R/Fc; Epo R; not shown: Fc of the bought chimera
T11 sequence: T1 sequence

[12] = target: T12, rHuman HGF R/c-MET/Fc Chimera, CF (R&D Systems Cat#358-MT/CF) (human, UniProt P08581 25-932); test: ECL (MSD multi-spot), antigen on plate, Fab 0.4 nM
T12 construct: Bought Fc chimera; also called HGF R/Fc; not shown: Fc of the bought chimera

[13] = target: T13, rHuman ErbB2/Fc Chimera, CF (R&D Systems Cat#1129-ER) (human, UniProt P04626 23-652); test: ECL (MSD multi-spot), antigen on plate, Fab 0.4 nM
T13 construct: Bought Fc chimera; also called HER2/neu; not shown: Fc of the bought chimera

[14] = target: T14, rHuman P-Cadherin/Fc Chimera, CF (R&D Systems Cat#861-PC) (human, UniProt P22223 108-654); test: ECL (MSD multi-spot), antigen on plate, Fab 0.4 nM
T14 construct: Bought Fc chimera; also called CDH3; not shown: Fc of the bought chimera

[15] = target: T15, rHuman EGF R/Fc Chimera, CF (R&D Systems Cat#344-ER) (human, UniProt P00533 25-645); test: ECL (MSD multi-spot), antigen on plate, Fab 0.4 nM
T15 construct: Bought Fc chimera; also called ErbB-1; not shown: Fc of the bought chimera

[16] = target: T16, Recombinant Human DLL4 (R&D Systems Cat#1506-D4/CF) (human, UniProt Q9NR61 27-524); test: ECL (MSD multi-spot), antigen on plate, Fab 0.4 nM
T16 construct: Bought recombinant protein; also called delta-like protein 4

[17] = target: T10, rHuman IGF-1 sR (insulin-like growth …); test: ECL (MSD multi-spot), antigen on plate, Fab 50 nM
[18] = target: T14, rHuman P-Cadherin/Fc Chimera, CF (R&D …); test: ECL (MSD multi-spot), antigen on plate, Fab 50 nM
[19] = target: T15, rHuman EGF R/Fc Chimera, CF (R&D …); test: ECL (MSD multi-spot), antigen on plate, Fab 50 nM
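Also: blank spot per well as comparator with Hit at signal to blank ratio of 4 or more.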

B1: Fab VH1-46_IGHD3-10*01_IGHJ4*01 & B3_IGKJ1*01 (Fab, V domains shown)
VH: QVQLVQSGAEVKKPGASVKVSCKASGYTFTSYYMHWVRQAPGQGLEWMGIINPSGGSTSYAQKFQGRVTMTRDTSTSTVYMELSSLRSEDTAVYYCAREYYYGSGSYYNDYFDYWGQGTLVTVSS
VL: not shown
notes: also called IGHV1-46*01
[1]
  ECL signal: 4100
[2]
  ECL signal: 528
[3]
  ECL signal: 649
[4]
  ECL signal: 769
[5]
  ECL signal: 715
[6]
  ECL signal: 606
[7]
  ECL signal: 660

B2: Fab VH1-46_IGHD6-6*01_IGHJ1*01_S102A_S103P_S104F & L6_IGKJ1*01_S30N (Fab, V domains shown)
VH: QVQLVQSGAEVKKPGASVKVSCKASGYTFTSYYMHWVRQAPGQGLEWMGIINPSGGSTSYAQKFQGRVTMTRDTSTSTVYMELSSLRSEDTAVYYCAREEYAPFSAEYFQHWGQGTLVTVSS
VL: EIVLTQSPATLSLSPGERATLSCRASQSVNSYLAWYQQKPGQAPRLLIYDASNRATGIPARFSGSGSGTDFTLTISSLEPEDFAVYYCQQRSNWPPWTFGQGTKVEIKR
notes: Fab
[8]
  ECL signal: 176 ECL signal
[9]
  ECL signal: 197 ECL signal
[10]
  ECL signal: 141 ECL signal
[11]
  ECL signal: 224 ECL signal
[12]
  ECL signal: 120 ECL signal
[13]
  ECL signal: 203 ECL signal
[14]
  ECL signal: 111 ECL signal
[15]
  ECL signal: 173 ECL signal
[16]
  ECL signal: 1040 ECL signal
[17]
  ECL signal: 240 ECL signal
[18]
  ECL signal: 143 ECL signal
[19]
  ECL signal: 294 ECL signal
